From PMC11605949

Biological target: HER2 (human, UniProt P04626 23-652)
Test: SPR

B1: HER2 aptamer (ssDNA)
DNA: AACCGCCCAAATCCCTAAGAGTCTGCACTTGTCATTTTGTATATGTATTTGGTTTTTGGCTCTCACAGACACACTACACACGCACA
modifications: 5'-SH-(CH2)6
binding result: binds
